Laboratory results reported in the nanobody polyreactivity screen of Harvey et al. (2022).

Experiment: yeast display, Sf9 membrane polyspecificity reagent, FACS + sequencing; frameworks hold sequencing errors
Method in brief: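 Galactose-induced (36–48 hours) yeast carrying a synthetic nanobody display library were exposed to 10% biotinylated, detergent-solubilized Sf9 membrane reagent at 4 °C for 1 hour. FACS followed streptavidin microbead enrichment, using low and high (top ~1%) gates for expression (anti-HA) and reagent binding (streptavidin). Colony PCR, MiSeq 2 × 250 sequencing and CDR-length filtering followed. Labels for polyreactivity reflect the gate of origin.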

| Sequence | polyreactivity (PSR sort gate) |
| --- | --- |
| QVQLVESGGGLVQAGGSLRLSCAASGSIFSYNAMGWYRQAPGKERELVAAITWSGGSTYYADSVKGRFTISRDNAKNTVYLQMNSLKPEDTAVYYCAAVYDDYSTSVGYSPEYDYWGQGTQVTESS | high polyreactivity |
| QVQLVESGGGLVQAGGSLRLSCAASGITFYRYVMGWYRQAPGKERELVAAISDSTGSTYYADSVKGRFTISRDNAKNTVYLQMNSLKPEDTAVYYCAAGWFYATYWRFYYWGQGTQVTVSS | low polyreactivity |
| QVQLVESGGGLVQARGSLRLSCAASGRTFKRYAMGWYRQAPGKERELVAAIAWSGTSTYYADSVKGRLTISRDNAKNTVYLQMNSLIPEDTAVYYCNTPHRSSSVRSYGYWGQGTQVSVSS | high polyreactivity |
| QVQLVESGVCLVQAGGSLRLSCAASGSTITYNAMGWYRQAPGKERELVASISSGTTTYYADSVKGRFTISRDNAKNTVYLQMNSLHTEDTAVYYCAVDSCSRVQGWLAHNYDYWGQGTQVTVSS | low polyreactivity |
| QVQLEESVGGLVQAGGSLRLSCAASGFTFHRYAMGWYTQAPGKERELVAGITRRSGSTFYADSVQGRFTISRDNAKNTVFLQMNSLKPEDTAVYYCAATVPGLHWIYDYWGQGTQVTVSS | high polyreactivity |
| QVQLVESGGGLVQAGGSLRLSCAASGSIFSRNAMGWYRQAPGKERELVAAISWRGGSTYYADSVKGRFTISRDNAKYTVYLQMNSLKPEDTAVYYCGALSYPGKAGMGYWGQGTQVTVSS | high polyreactivity |
| QVQLVESGGGLVQAGGSLRLSCAASGFTFSSYVMGWYRQAPGKERELVAAISGSGGSTYYADSVKGRFTISRDNAKNTVYLQMNSLKPEDTAVYYCAAVRRVGPTSYYYWGQGTQVTVSS | high polyreactivity |
| QVQLVESGGGLIQAGGSLRLSCAASGIIFYPYTMGWYRPAPGKERELVAAIRQSGTSTYYADSVKGRFTISRDNAKKTVYFQMNSLKPEDTAVYYCNADDHIYWRKGYDYWGQGTQVTVSS | low polyreactivity |
| QVQLVESGGGLVQAGGSLRLSCAASGFISDGNYMGWYRQAPGKERELVAAISSGATTHYADSVKGRFTISRDNAKNTVYLQMNSLKPEDTAVYYCNRGDDWRYDYWGQGTQVTVSS | low polyreactivity |
| QVQLVESGGGLVQAGGSLRLSCAASGSIFVVYGMGWYRQAPGKERELVAAISGGITNYADSVKGRFTISRDNAKNTVYLQMNSLKPEDTAVYYCATVDGAYQYTYDYWGQGTQVTVSS | low polyreactivity |
| QVQLVESGGGLVQEGGSLRFSCAASGFTFDHYAMGWNRQAPGKERELVAVITKSGDSTYYADSVKGRFTISRDNAKNTVYLQMNSQKPEDPAVYYCNARRDYDMDWGQGTQVTVSS | high polyreactivity |
| QVQLVESGGGLVQAGGSLRLSCAASGSTFQPYTMGWYRQAPGTERELVAAITGRGGSTYYADSVKGRFTISRDNAKNTVYLQMNSLKPEDTAVYYCAAGAYRRNKSDYYYWGQGTQVTVSS | low polyreactivity |
| QVQLVESGGGLVQAGGSLRLSCAASGFTCPYYMGWYRQAPGKERELVADISWSDGSTYYADSVKGRFTISRDNAKNTVSLQMNSLKPEDTAVYYCAADYVSSWFYLPEYDYWGQGTQVTVSS | high polyreactivity |
| QVQLVESGGGLVQAGGSLRLSCAASGSIFRRNAMGWYRQAPGTERELVAAISLRGGSTYYADSVKGRFTISRDLAKNTVYLQMISLKTQDTAVYYCADDEFDDYDWYRGYDTTYDYWGQGTQVTGSS | low polyreactivity |
| QVQLVESGGGLVQAGGSLRLSCAASGSTFSGNAMGWYRQAPGKERELVAAITSSGGSTYYADSVKGRFTISRDNAKNTVYLQMNSLKPEDTAVYYCAAKSRRTRRSYYWGQGTQVTVSS | high polyreactivity |
| QVQLVESGGGLVQAGGSLRLSCAASGFIFQSYAMGWYRQAPGKERELVAAITRSGGRTYYADSVKGRFTISRDNAKNTVYLQMNSLKPEDTAVYYCAAETSYPGIYRFYYWGQGTQVTVSS | high polyreactivity |
| QVQLVESAGGLVQAGGSLRLSCAASGITFYEYVMGWYRQAPGKERELVASIDWSGGGTYYADSVKGRFTISRDNAKNTVYLQMNSLKPEDTAVYYCNADYFDYSRPRYDYWGQGTQVTVSS | low polyreactivity |
| QVQLVESGGGLVQAGGSLRLSCAASGNIFSVYAMGWYRQAPGKERELVAAISSSGGRTYYADSVKGRFTISRDNAKNTVYLQMNSLKPEDTAVYYCNTAGYDYYSTQAYDYWGQGTQVTVSS | high polyreactivity |
| QDQLVESCGCLVQAGGSLRLSCASSGSTFGTYAMGWYRQAPGKERELVAAISSGDSTTYADSVKGRFTISRDNAKNTVYFQRNSLKQVDTAVYYCAARTFLMRNGGYNYWGEGTQVTVSS | low polyreactivity |
| QVQLVESGGGLVQAGGSLRLSCAASGITFAKYAMGWYRQAPGKERELVAAISTSGGSTYYADSVKGRFTISRDNAKNTVYLQMYSLKPEDTAVYYCNVDTYIWYYLRYYNYWGQGTQVTVSS | high polyreactivity |
| QVQLGESGGGLVQAGGSLRLSCAASGRIFQHNTMGWYRQAPGKEREFVAAIRRSGGSTYYADSVKGRFTISRDNAKNTVYLQMNSLKPEDTAVYYCAARDYPTGTRRWGGGDSWGQGTQVTLSS | low polyreactivity |
| QVQLVVSGGGLVQAGGSLRISCAASGITFGRYAMGRYRPAPGKERELVAAISWSGGSTYYADSVKGRFTISRDNAKNTVFLQMNSLKPEDTAVYYCALEWYYTSYHIRFYRDNYWGQGTQVTVSS | high polyreactivity |
| QVQLVESGGGLVQAGGSLRLSCAASGFTFWLYTMGWYRQAPGKERELVAAISWSGGSTYYADSVKGRFTISRDTAKNTVYLQMNSLKPEDTAVYYCNALYVGYYDSMGYWGQGTQVTVSS | high polyreactivity |
| QVQLVESGGGLVQAGGSLRLSCAASGFIFAYYAMGWYRQAPGKERELVARITRGGRTYYADSVKGRFTISRDNAKNTVYLQMNSLKPEDTAVYYCATTGSSYFHSFEYDYWGQGTQVTVSS | low polyreactivity |
| QVQLVESGGGLVQAGGSLRISCAASGITFQSNAMGWYRQAPGTERELVAGITGNGGSTYYADSVKGRFTISRDNAKNTVYLQMNSLKPEDTAVYYCNIGRRKRTRYDYWGQGTQGTVSS | high polyreactivity |
| QVQLVESGGGLVQAGGSLRLSCAASGFIFYAYAMGWYRQAPGKERELVPAISRRGGSTYYADSVKGRFTISRDNAKNTVYLQMNSLKPEDTAVYYCARDWTLGRSGPKYGYWGQGTQVTVSS | high polyreactivity |
| QVQLVESGGGLVQAGGSLRLSCAASGRTFVAKTMGWYRQAPGKERELVAAISSSGGSTYYADSVKGRFTISRDNAKNTVYLQMNSLKPEDTAVYYCAKTHSGWWRYGYWGQGTQVTVSS | high polyreactivity |
| QVQLVESGGGLVQAGGSVRLSCAASGRTFYYNAMGWYRQAPGKERELVAAISWSGGSTYYADSVKGRFTISRDNAKNTVYLQMNSLKPEDTAVYYCAARSRYYHFDYWGQGTQVTVSS | high polyreactivity |
| QVQLVESGGGLVQAGGSLRLSCAASGRTFSSNAMGWYRQDPGKERELVASISFRGGRTYYADSVKGRFTISRDNAKNTVYLQMNSLKPEVTAVYYCVSGTKRTGYGYWGQGTQVTVSS | high polyreactivity |
| QVQLVESGGGLVQAGGSLRLSCAASGRTFHSNAMGWYRQAPGNDRELVASSRRGSRTYYADSVKGRFTISRDNAKNTVSLQLTSLKPEDTAVYYCAAAQVGYYVGSVTYGYWGQATQVTVSS | high polyreactivity |
